Measurements from patent US20260139001A1.

Biological target: SARS-CoV-2 Spike RBD, B.1.1.529/Omicron (SARS-CoV-2 Omicron B.1.1.529) (UniProt P0DTC2)

Work on “Ribosomally constructed Wuhan-NS (VHH72 V104UAG construct translated with NBDxK-tRNACUA)” yielded a normalized tube fluorescence of 0.09.
